Data: patent US20200368361A1 (Regeneron, published 2020)
Numbering of substitutions follows the chain as printed. Names may count otherwise.

T1: human MSR1 with a C-terminal Myc tag expressed on HEK293.Myc.hMSR1 cells (human, UniProt P21757 1-451)
T1 sequence (looked up): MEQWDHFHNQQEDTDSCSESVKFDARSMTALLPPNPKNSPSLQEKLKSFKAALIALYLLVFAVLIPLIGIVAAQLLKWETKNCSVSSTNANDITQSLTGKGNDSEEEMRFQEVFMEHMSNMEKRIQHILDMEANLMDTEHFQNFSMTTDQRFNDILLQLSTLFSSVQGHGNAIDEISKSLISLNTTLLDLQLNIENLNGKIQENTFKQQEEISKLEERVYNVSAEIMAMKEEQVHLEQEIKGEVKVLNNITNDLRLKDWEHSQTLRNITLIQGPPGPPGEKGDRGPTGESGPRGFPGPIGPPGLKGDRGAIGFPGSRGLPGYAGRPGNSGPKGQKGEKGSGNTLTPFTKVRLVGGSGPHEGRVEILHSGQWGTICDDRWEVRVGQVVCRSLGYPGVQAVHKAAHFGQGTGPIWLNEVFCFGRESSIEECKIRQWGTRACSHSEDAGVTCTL

B1: H1H27762P2-N297Q (antibody, V domains shown)
VH: QVQLVQSGAEVKKPGSSVKVSCKASGGTFSRYDISWVRQAPGQGLEWMGGIIPIFGTSNYAQKFQGRVTITTDESTSTVYMELSSLRSEDTAVYYCARGGRYGWFDPWGQGTLVTVSS
VL: not shown
B2: H1H27756P-N297Q (antibody, V domains shown)
VH: QVQLVESGGGVVQPGRSLRLSCAASGFTFSNYDMHWVRQAPGKGLEWMAVISYDGINKYYADSVKGRFTISRDNSKNTLYLQMNSLRAEDTAVYYCAKGTYSWYFDLWGRGTLVTVSS
VL: not shown
B3: H2aM21229N (antibody, V domains shown)
VH: EVQLVESGGGLVKPGGSLRLSCAASGFTFSRYSMNWVRQAPGKGLEWVSSISSSSSYIYYGDTVKGRFTISRDNAKKSLYLQMNSLRAEDTAVYYCVRDRGQLVLYFDYWGQGTLVTVSS
VL: DIQMTQSPASLSTSIRDRVTITCRASLSISSFLNWFQQRPGKAPKLLIYVASNLQSGVPSRFSDSGSGTDFTLTISSLQPEDFATYYCQQNYSTPPITFGQGTRLEIK
B4: H1M21231N (antibody, V domains shown)
VH: EVQLVESGGGLVQPGGSLRLSCAASGFTFSDHYMDWVRQAPGKGLEWVGRTRNKANSHTTEYTASVTGRFTISRDDSRNSLYLQMNSLKTEDTAVYYCVRAGIIGTLFDYWGQGTLVTVSS
VL: DIQMTQFPSSLSASVGDRVTITCRASQSISSFLNWFQQKPGKAPKFLIYAASSLQSGVPSRFSGSGSGTDFTLTISSLQPEDFATYYCQQSYSSPPITFGQGTRLEIKR
B5: H1H21227N-N297Q (antibody, V domains shown)
VH: QVQLVQSGAEVKKPGASVKVSCKVSGYTLTELSIHWVRQVPGKGLEWMGGFDPEEGETIFAQEFRDRVTLTEDTSPDTAYMELSSLKSEDAAVYYCTTPRYCNNGICYDYWGQGTLVTVSS
VL: B4 VL with F7S, S31N, F32Y, F36Y, F46L, A50T, P80T, S94N, P95F
B6: H2aM21235N (antibody, V domains shown)
VH: B4 VH with H58Y, T63A, T67S, R78K, V99T
VL: B4 VL with F7S, S28I, S30G, S31R, F32Y, A43V, F46L, S56R, S93N, S94T
B7: H2aM25700N (antibody, V domains shown)
VH: QVQLVQSGSEVKKPGASVKVSCKVSGYTLTELSIHWVRQAPGKGLEWMGGFDPEDGETIYAQKFRGRVTMTEDISPDTAYMELSSLRSEDTAVYYCATPRYCNNGICYDYWGQGTLVTVSS
VL: B4 VL with F7S, V15I, F32Y, F36Y, K45M, F46L, P80T, S94T
B8: H2aM21227N (antibody, V domains shown)
VH: B5 VH
VL: B4 VL with F7S, S31N, F32Y, F36Y, F46L, A50T, P80T, S94N, P95F
B9: H1H27761P2-N297Q (antibody, V domains shown)
VH: EVQLVESGGDLVQPGGSLRLSCSASGFTFNIYAMSWVRQAPGKGLEWVSGISGSGGSTYYADSVKGRFTISRDNSKNTLYFQMNSLRVEDTAVYYCAKKISSSSYYYYAMDVWGQGTTVTVSS
VL: not shown
B10: H1H27747P-N297Q (antibody, V domains shown)
VH: QVQLVESGGAVVQPGRSLRLSCAASGFTFSYYGMHWVRQAPGKGLEWVAVISYDGSKKYYADSVKGRFTISRDNSKNTLYLQMNSLRAEDTAVYYCAKDLTVDFYYGMDVWGQGTTVTVSS
VL: DIQMTQSPSSVSASVGDRVTITCRASQGISSWLAWYQQKPGKAPKLLIYATSSLQSGAPSRFSGSGSGTDFTLTISSLQPEDFATYFCQQANSFPYTFGQGTKLEIKR
B11: H1H27754P-N297Q (antibody, V domains shown)
VH: EVQLVESGGGLVQPGGSLRLSCAASGFTFRTYAMTWVRQAPGKGLDWVSAITGDGGNTYYADSVKGRFTISRDNSKNTLYLQMNSLRAEDTAIYYCAKDQRFSFALYYFDYWGQGTLVTVSS
VL: B10 VL with K42N, T51A, S52F, A58V, F87Y, S93N, Y96W, L104V
B12: H1H27734P-N297Q (antibody, V domains shown)
VH: EVQLVESRGGLVQPGGSLRLSCAASGFTFSSYAMSWVRQAPGKGLEWVSAISGSGGSTFYADSVKGRFTISRDNSKNTVYLQMNSLRAEDTAVYYCAKALVLRFLEWLGDYWGQGTLVTVSS
VL: DIQMTQSPSTLSASVGDRVTITCRASQSISSWLAWFQQKPGKAPKLLIYKASSLESGVPSRFSGSGSGTEFTLTISSLQPDDFATYYCQQYKSYWTFGQGTKVEIKR
B13: H1H27751P-N297Q (antibody, V domains shown)
VH: EVQLVESGGGLVQPGGSLRLSCAASGFTFSNYAMHWVRQAPGKGLEYVSAISSNGGSTYYADSVKGRITISRDNSKNTLYLQMGSLRAEDMAVYYCARGRPYYYYFGMDVWGQGTTVTVSS
VL: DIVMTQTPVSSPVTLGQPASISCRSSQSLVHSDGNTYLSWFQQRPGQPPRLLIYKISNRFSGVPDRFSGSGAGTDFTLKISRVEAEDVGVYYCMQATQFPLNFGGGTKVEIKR
B14: H1H27759P2-N297Q (antibody, V domains shown)
VH: EVQLVESGGGFVQPGGSLRLSCAASGFTFSSYAMSWVRQAPGKGLEWVSAISGTGSNTYYADSVKGRFTISRDNSKNTLYLQMNSLRAEDTAVYYCAKDRVTTVTYYFDYWGQGTLVTVSS
VL: not shown
B15: H1H27739P-N297Q (antibody, V domains shown)
VH: EVQLVESGGGLVQPGGSLRLSCTASGFTFSSYAMSWVRQAPGKGLEWVSAISGTGSSTYFTDSVKGRFAISRDNSKNTLYLQMNSLRAEDTAVYYCAKDGEWLSTVTLFDYWGQGTLVTVSS
VL: EIVMTQSPATLSVSPGERATLSCRASQSVSSNLAWYQQKPGQAPRLLIYGASTRATGIPARFSGSGSGTDFTLTISSLQSEDFALYYCQQYFIWPPHPTFGPGTKVDIKR
B16: H2aM21228N (antibody, V domains shown)
VH: VQLVESGGGLVQPGGSLRLSCAASGFTFSDHYMDWVRQAPGKGLEWVGRTRNKANSHTTEYAASVSGRFTISRDDSKNSLYLQMNSLKTEDTAVYYCTRAGIIGTLFDYWGQGTLVTVSS
VL: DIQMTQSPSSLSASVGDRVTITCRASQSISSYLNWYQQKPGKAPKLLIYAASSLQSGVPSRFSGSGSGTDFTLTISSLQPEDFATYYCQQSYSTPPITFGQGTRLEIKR
B17: H2aM25685N (antibody, V domains shown)
VH: B7 VH with S9A, K12R, K13E, V20L, D55E, I59V, M70L, R87T, V117I
VL: not shown
B18: H1H27760P2-N297Q (antibody, V domains shown)
VH: EVQLVESGGGLVQPGRSLRLSCAASGFTFDAYAMHWVRQAPGKGLEWVSGISWNSGSIGYADSVKGRFTISRDNAKNSLYLQMNSLREEDTALYYCAKDKILELYYYGMDVWGQGTTVTVSS
VL: not shown
B19: H2bM21234N (antibody, V domains shown)
VH: QVQLQESGPGLVKPSETLSLTCTVTGGSISRNYWSWIRQPPGKGLEWIGYIYYSGSIDYNPSLKSRVTISVDTSKNQFSLKLSSMTAADTAVYYCARDRWNWKYGMDVWGQGTTVIVSS
VL: EIVLTQSPGTLSLSPGERATLSCRASQTVRNNYLAWYHQKPGQAPRLLIYGASSRATGIPDRFSGSGSGTDFTLTISRLEPEDFTVYYCHQYGNSPWTFGQGTKMEIKR
B20: H1H21234N-N297Q (antibody, V domains shown)
VH: B19 VH
VL: B19 VL
B21: H2aM25695N (antibody, V domains shown)
VH: B19 VH with D58N, T73M, S83N, M85V
VL: B19 VL with N32S, T85A, H90Q, N94S, P96Y
B22: H1H27766P2-N297Q (antibody, V domains shown)
VH: EVQLVESGGGLVQPGGSLRLSCAASGFTFSSFAMSWVRQAPGKELEWVSSISGRGGSTYYADSVRGRFTISRDNSKITLYLQMNSLRAEDTAVYYCAKDIVFRYTSSAYWYFDLWGRGTLVTVSS
VL: not shown

molecular target: T1, human MSR1 with a C-terminal Myc tag …; experiment: cell-based or functional assay

Row | IC50 of inhibition of Dil-Acetylated LDL uptake [nM] | IC50 of inhibition of Dil-Oxidized LDL uptake [nM] | % Inhibition of Dil-Acetylated LDL uptake [%] | % Inhibition of Dil-Oxidized LDL uptake [%] | Binder
1 | 2.9 | 4 |  |  | B1
2 | > 100 |  |  |  | B2
3 |  | > 100 |  |  | B3
4 | > 20 | 3.7 |  |  | B4
5 | 2.4 | 1.8 | 65 | 94 | B5
6 | > 100 |  |  |  | B6
7 | 2.4 |  | 79 | 91 | B7
8 | 3.7 | 3.1 |  |  | B8
9 | > 100 | 9.5 |  |  | B9
10 | > 100 | > 100 |  |  | B10
11 | 1.8 | 4.6 |  |  | B11
12 |  | 5.5 |  |  | B12
13 | 1.6 | 2.9 |  |  | B13
14 | > 100 | > 10 |  |  | B14
15 |  | > 100 |  |  | B15
16 | > 100 | 3.1 |  |  | B16
17 | > 100 | > 100 | 22 | 43 | B17
18 | 2.6 | 4.9 |  |  | B18
19 | 1.8 | 4.5 |  |  | B19
20 | 1.3 | 6.1 |  |  | B20
21 | > 170 | > 16 |  |  | B21
22 | 3.5 | 3.7 |  |  | B22
